# Where no end group is shown, it is not given here.
# T1: MBP-KLHL15-His (human, UniProt Q96M94 1-604)
# T1 construct: KLHL15, human; gene amplified from the pCMV6-KLHL15 vector and subcloned into the pFB-MBP-fusion plasmid; In the pull-downs MBP was kept (coupled to amylose beads); MBP was cleaved only for the protein purified further; also called recombinant MBP-KLHL15; recombinant KLHL15 purified from insect cells; not shown: MBP, N-terminal, kept
# T1 sequence (looked up): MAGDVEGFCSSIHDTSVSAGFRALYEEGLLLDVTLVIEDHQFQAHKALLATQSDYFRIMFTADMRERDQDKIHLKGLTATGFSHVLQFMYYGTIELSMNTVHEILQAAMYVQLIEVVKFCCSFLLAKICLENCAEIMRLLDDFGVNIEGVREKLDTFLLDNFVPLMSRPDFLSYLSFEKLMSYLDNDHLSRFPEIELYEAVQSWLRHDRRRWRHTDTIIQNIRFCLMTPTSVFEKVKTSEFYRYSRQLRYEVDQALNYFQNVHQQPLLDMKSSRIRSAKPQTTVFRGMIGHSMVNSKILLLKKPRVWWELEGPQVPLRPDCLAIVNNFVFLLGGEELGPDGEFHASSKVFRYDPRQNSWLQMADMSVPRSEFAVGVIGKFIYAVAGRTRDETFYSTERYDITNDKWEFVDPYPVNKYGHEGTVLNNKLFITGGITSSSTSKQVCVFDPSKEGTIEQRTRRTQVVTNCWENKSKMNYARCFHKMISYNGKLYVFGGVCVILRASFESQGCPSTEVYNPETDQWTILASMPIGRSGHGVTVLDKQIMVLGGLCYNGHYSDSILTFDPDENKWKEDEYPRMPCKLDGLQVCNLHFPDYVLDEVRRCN
# Molecular target: T1, MBP-KLHL15-His
# Experiment: pull-down; competition: CtIP 15-mer peptide added in the indicated amounts to MBP-KLHL15 on amylose beads with HEK293T lysate
# Conditions: both partners purified
binder,measurement,value
"KKLASCSRHRFRYIP (peptide, UniProt Q99708 830-844, looked up, also: biotinylated (position not given here), CtIP, human, residues 830-844 in the CTD; also called CtIP peptide; CtIP 15-mer peptide; source: synthetic peptide, bought: Bachem AG) [biotinylated 15-mer peptide encompassing CtIP amino acid residues 830–844]",binding result,binds

# Source: publication PMC5007465, “Cullin3-KLHL15 ubiquitin ligase mediates CtIP protein turnover to fine-tune DNA-end resection” (Nature Communications, 2016)
